The record followed here is US20240024501A1 (BONUM THERAPEUTICS, published 2024).

Where two headings read alike, the source gives them in different places.

In assay [1] the target is T1, AF33.
T1 construct: also called IL-15; IL15
Put plainly: ELISA: scFv captured at saturating level on anti-V5, titrated biotinylated AF33 (IL-15 fusion), streptavidin-HRP. On the technique in general: An ELISA detects its analyte on a solid surface through an enzyme-linked reagent.

The target of assay [2] is T2, PDL1-hFc-Avi (Acro Biosystems, PDL-H82F2) (UniProt Q9NZQ7 19-238, biotinylated). As to the kind of experiment: ELISA: scFv captured at saturating level on anti-V5, titrated PDL1-hFc-Avi, streptavidin-HRP.
Assay [3] deals with T3, LRRC15-hFc (Sino Biologicals, 15786-H02H) (UniProt Q8TF66 22-538).
T3 construct: also called LRRC15-Fc
T3 sequence (looked up): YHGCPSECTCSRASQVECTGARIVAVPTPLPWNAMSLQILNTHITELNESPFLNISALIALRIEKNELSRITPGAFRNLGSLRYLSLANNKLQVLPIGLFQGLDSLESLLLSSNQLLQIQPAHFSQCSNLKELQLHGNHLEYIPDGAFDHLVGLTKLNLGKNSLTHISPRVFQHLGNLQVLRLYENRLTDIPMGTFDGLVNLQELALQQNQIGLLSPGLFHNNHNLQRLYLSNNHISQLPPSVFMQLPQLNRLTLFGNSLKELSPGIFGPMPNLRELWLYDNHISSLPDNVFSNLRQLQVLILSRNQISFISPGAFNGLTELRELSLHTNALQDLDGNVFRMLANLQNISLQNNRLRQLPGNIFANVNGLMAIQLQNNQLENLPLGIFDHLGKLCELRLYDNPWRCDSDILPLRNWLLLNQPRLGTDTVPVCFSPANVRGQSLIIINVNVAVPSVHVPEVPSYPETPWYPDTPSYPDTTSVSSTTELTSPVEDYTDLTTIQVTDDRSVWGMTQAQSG
As to the kind of experiment: ELISA (Example 33): cell-free expressed scFv on LRRC15; x axis Log (concentration, nM).

The next assay deals with T4, AF3099.
T4 construct: IFNα-linker-DBA scFv variant complex
As to the kind of experiment: ELISA as in Example 9: dilution series of the IFN-scFv complex captured on anti-V5, probed with IFNAR2-Biotin with or without PD-L1, streptavidin-HRP.

Assay [4] deals with T1, AF33. As to the kind of experiment: ELISA: scFv captured at saturating level on anti-V5, titrated biotinylated AF33 (IL-15 fusion), streptavidin-HRP. The source holds these as a separate data set.
The target of assay [5] is T2, PDL1-hFc-Avi (Acro Biosystems, …). Put plainly: ELISA: scFv captured at saturating level on anti-V5, titrated PDL1-hFc-Avi, streptavidin-HRP. This is another data set of the same source.

B1: AF636 (scFv)
scFv: MSTSTEQKLISEEDLQVQLVQSGAEVKKPGASVKVSCKASGYSFTSYYLHWVRQAPGQGLEWMGRISPRSGGTKNAQNFQGRVTMTRDTSTSTVYMELSSLRSEDTAVYYCVRSLFPTIFGVEVAFDIWGQGTLVTVSSASGGGGSGGGGSGGGGSHASDIQMTQSPSSLSASVGDRVTITCRASQSISSWLAWYQQKPGKAPKLLIYYASSLQSGVPSRFSGSGSGTDFTLTISSLQPEDFATYYCQQGYQYPYTFGQGTKLEIKGKPIPNPLLGLDST
For B1, the binding result (in the assay with AF33 [1]; in assay [2]) was “binds” in each case.

B2: i47_A11 (scFv)
scFv: MSTSTQVQLVQSGAEVKKPGSSVKVSCKASGYTFTSYDINWVRQAPGQGLEWMGTINPSDGDTTYAQKFQGRVTITADESTSTAYMELSSLRSEDTAVYYCARVGGWGIYYYYGMDVWGQGTLVTVSSASGGGGSGGGGSGGGGSHASDIQMTQSPSSLSASVGDRVTITCRASQSINSWLAWYQQKPGKAPKLLIYAASSLQSGVPSRFSGSGSGTDFTLTISSLQPEDFATYYCQQTYTVPFSFGQGTKLEIKRAAAGSGSEQKLISEEDLGKPIPNPLLGLDST
For the molecule B2, the binding result in assay [3] is listed as “binds”.

B3: IFNAR2-Biotin (receptor)
chain: ISYDSPDYTDESCTFKISLRNFRSILSWELKNHSIVPTHYTLLYTIMSKPEDLKVVKNCANTTRSFCDLTDEWRSTHEAYVTVLEGFSGNTTLFSCSHNFWLAIDMSFEPPEFEIVGFTNHINVMVKFPSIVEEELQFDLSLVIEEQSEGIVKKHKPEIKGNMSGNFTYIIDKLIPNTNYCVSVYLEHSDEQAVIKSPLKCTLLPPGQESESAESAK
modifications: biotinylated
notes: also called biotinylated interferon receptor (IFNAR2)
Take B3: the binding result in the assay with AF3099 is on record as “no binding (tested: 0.5 % IFN-scFv)”.

B4: i47_A12 (scFv)
scFv: MSTSTQVQLVQSGAEVKKPGSSVKVSCKASGYTFINNDINWVRQAPGQGLEWMGGTIPIFGVHIYAQKFQGRVTITADESTSTAYMELSSLRSEDTAVYYCVSSVGAGAYYYYGMDVWGQGTLVTVSSASGGGGSGGGGSGGGGSHASDIQMTQSPSSLSASVGDRVTITCQASQDISNYLNWYQQKPGKAPKLLIYAASSLQSGVPSRFSGSGSGTDFTLTISSLQPEDFATYYCQQSYSLPYTFGQGTRLEIKRAAAGSGSEQKLISEEDLGKPIPNPLLGLDST
On to B4, for which the binding result in assay [3] is given as “binds”.

B5: AF635 (scFv)
scFv: MSTSTEQKLISEEDLQVQLVQSGAEVKKPGASVKVSCKASGYTFTGYYIHWVRQAPGQGLEWMGIINPSGGSTRYAQKFQGRVTMTRDTSTSTVYMELSSLRSEDTAVYYCARSLFPTIFGVEVAFDIWGQGTLVTVSSASGGGGSGGGGSGGGGSHASDIQMTQSPSSLSASVGDRVTITCRASQSIRTYLNWYQQKPGKAPKLLIYSASNLQSGVPSRFSGSGSGTDFTLTISSLQPEDFATYYCQQANSFPFTFGPGTKVDIKGKPIPNPLLGLDST
Take B5: the binding result (with AF33 [4]; in assay [5]) was “binds” throughout.

B6: A03 (scFv)
scFv: MSTSTQVQLVQSGAEVKKPGASVKVSCKASGYTFTGYYMHWVRQAPGQGLEWMGWMDPNNDDADYAQRFQGRVTMTRDTSTSTVYMELSSLRSEDTAVYYCASLAAAGPYYYYGMDVWGQGTLVTVSSASGGGGSGGGGSGGGGSHASDIQMTQSPSSLSASVGDRVTITCRASQSINNYLNWYQQKPGKAPKLLIYGASNLETGVPSRFSGSGSGTDFTLTISSLQPEDFATYYCQQSYGTPLTFGGGTKVEIKRAAAGSGSEQKLISEEDLGKPIPNPLLGLDST
In the case of B6, the binding result in assay [3] is listed as “binds”.

B7: B07 (scFv)
scFv: MSTSTQVQLVQSGAEVKKPGASVKVSCKASGYTFTGYYMHWVRQAPGQGLEWMGWMDPNNDDADYAQRFQGRVTMTRDTSTSTVYMELSSLRSEDTAVYYCASLAAAGPYYYYGMDVWGQGTLVTVSSASGGGGSGGGGSGGGGSHASDIQMTQSPSSLSASVGDRVTITCQASQDISNYLNWYQQKPGKAPKLLIYGASILEAGVPSRFSGSGSGTDFTLTISSLQPEDFATYYCQQSYSAPITFGQGTRLEIKRAAAGSGSEQKLISEEDLGKPIPNPLLGLDST
Regarding B7, the binding result in assay [3] is listed as “binds”.
